Results from patent US12686723 (SHANGHAI ACEMAB, dated 2026).

T1: human BCMA antigen (6His tag, product number CC28, Novoprotein) (human, UniProt Q02223 1-54)
T1 construct: Bought reagent; not shown: 6His tag
T1 sequence (looked up): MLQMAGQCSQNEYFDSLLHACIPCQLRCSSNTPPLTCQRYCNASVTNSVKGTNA

T2: commercial recombinant human BCMA protein (Fc tag, Cat. No. CS79, Novoprotein) (human, UniProt Q02223 1-54)
T2 construct: Bought reagent; also called Human recombinant BCMA protein; BCMA antigen (Novoprotein cat: CS79); not shown: Fc tag
T2 sequence (looked up): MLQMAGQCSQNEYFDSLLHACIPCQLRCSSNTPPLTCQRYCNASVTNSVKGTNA


Legend:
[1] = target: T1, human BCMA antigen (6His tag, product …); assay: SPR, Biacore T200, BCMA-6His on chip, antibody as analyte
Description: Example 8: Affinity Analysis of Anti-Human BCMA Monoclonal Antibody Binding to Human BCMA The kit, consumables and instruments used in this example were purchased from GE Healthcare; According to the instructions provided, human BCMA antigen (6His tag, product number CC28, Novoprotein) is conjugated to the chip surface, and then HBS-EP+ buffer solution is double-diluted to prepare different concentrations of the antibody to be analyzed, and meanwhile set the 0 concentration point and the quality control concentration point; According to the manufacturer's standard setting procedure of Biacore T200, the flow cell that captures ligand is used as the detection channel, the flow cell of un-captured ligand as the reference channel, and the HBS-EP+ buffer solution as the mobile phase, and different concentrations of the antibody solution to be analyzed are injected respectively; The SPR signal is collected by the Biacore T200 Control software, and then the data is processed by the Biacore T200 Evaluation analysis software; Finally, the Ka, Kd and KD values are calculated for the kinetic analysis or steady-state analysis of the obtained kinetic curves, and the results are shown in Table. 2.

[2] = target: T2, commercial recombinant human BCMA …; assay: ELISA, BCMA-Fc (CS79) coated on plate, hybridoma supernatant diluted 1:50, anti-mouse IgG-HRP
Description: Dilute BCMA antigen (Novoprotein cat: CS79) with PBS to 0.5 ng/μl; add 100 μl/well of antigen to a 96-well flat-bottom ELISA plate (Maxisorp), seal with cling film, and store at 4° C. overnight; pour off the antigen the next day. After that, wash with PBS (200 μl/well), pour off the PBS, pat dry on absorbent paper and add 200 μl of blocking solution to each well and block at room temperature for 2 hours. After blocking, pour off the blocking solution and pat dry on absorbent paper; add 50 μl of HRP-conjugated goat anti-mouse IgG secondary antibody diluted in diluent, place at room temperature for 1 hour, then pour off the liquid and wash 5 times with washing solution (200 μl/well), finally pour off the washing solution and pat dry on absorbent paper; add 50 μl/well of TMB-hydrogen peroxide urea solution substrate solution and place it at room temperature for 3-5 minutes, add 50 μl/well of 0.25M sulfuric acid to stop the reaction, the optical density was measured by obtaining the absorbance with a 450 nm filter under a multifunctional microplate reader.

Binder	Kd [1]	koff [1]	kon [1]	OD450 [2]
anti-human BCMA monoclonal antibody 23C4 (antibody, human IgG1, kappa, V domains shown, Tested as hybridoma supernatant (ELISA) or Protein G-purified hybridoma antibody (SPR); constant region of the tested hybridoma material is uncertain (anti-mouse IgG secondary used)) VH: EVQLVESGGGLVQPGRSLRLSCAASGFTFADHAMHWVRQAPGKGLEWVSGISWNSDHIGYADSVKGRFTISRDNAKNSLYLQMNSLRPEDTALYYCAKDIFSPTGDGYWGQGTLVTVSS VL: DIQMTQSPSSLSASVGDRVTITCRASQDIRNNLGWFQQKPGKTPKRLIYAASSLQSGVPSRFSGSGSGTEFTLIISSLQPEDFATYYCLHHNSYPPTFGQGTKVEIKR	0.146 nM	7.01e-05 s⁻¹	481000 M⁻¹ s⁻¹	2.86
anti-human BCMA monoclonal antibody 27A7 (antibody, human IgG1, kappa, V domains shown, Tested as hybridoma supernatant (ELISA) or Protein G-purified hybridoma antibody (SPR); constant region of the tested hybridoma material is uncertain (anti-mouse IgG secondary used)) VH: EVQLVESGGGLVQPGRSLRLSCAASGFTFDDHAMHWVRQAPGKGLEWVSGISWNSVHIGYADSVKGRFTISRDNAKNSLYLQMNSLRAEDTALYYCAKDIFSPTGDDYWGQGTLVTVSS VL: DIQMTQSPSSLSASVGDRVTITCRASQDIRNNLGWFQQKPGKTPKRLIYAASSLQSGVPSRFSGSGSGTEFTLTISSLQPEDFATYYCLHHNSYPPTFGQGTKVEIKR	0.0117 nM	7.22e-05 s⁻¹	6.18e+06 M⁻¹ s⁻¹	2.59
anti-human BCMA monoclonal antibody 31F5 (antibody, V domains shown, Tested as hybridoma supernatant (ELISA) or Protein G-purified hybridoma antibody (SPR); constant region of the tested hybridoma material is uncertain (anti-mouse IgG secondary used)) VH: EVQLVESGGGLVQPGRSLRLSCAASGFTFDDYAMHWVRQAPGKGLEWVSGISWNSDNIAYADSVKGRFTISRDNAENSLYLQMNSLRTEDTAIYYCAKVAAATFDYRGQGTLVTVSS VL: DIQMTQSPSSLSASVGDRVTITCRASQSISSYLNWYQQKPGKAPKLLIFAASSLQSGVPSRFSGSGSGTDFTLTISSLQPEDFATYSCQQSFSIPFTFGPGTKVDIKR	0.0483 nM	2.78e-05 s⁻¹	576000 M⁻¹ s⁻¹	3
anti-human BCMA monoclonal antibody 20A9 (antibody, human IgG1, kappa, V domains shown, Tested as hybridoma supernatant (ELISA) or Protein G-purified hybridoma antibody (SPR); constant region of the tested hybridoma material is uncertain (anti-mouse IgG secondary used)) VH: QVQLVQSGAEVKKPGASAKVSCKASGYTFTSYAMQWVRQAPGQRLEWMGWINAGNGNIKYSQKFQGRVTITRDTSASTAYMELSSLRSEDTAVYYCARGGRLELDVYYYFYYMDVWGKGTTVTVSS VL: DIVMSQSPDSLAVSLGERTTINCKSSQSVLHSSQNKNYLAWYQQKPGQPPNPLIHWASTRESGVPDRFSGSGSGTDFTLTISSLQAEDVAVYYCQQYYRVPFTFGPGTKVDIKR	0.0409 nM	2.34e-05 s⁻¹	573000 M⁻¹ s⁻¹	2.2
anti-human BCMA monoclonal antibody 11B10 (antibody, human IgG1, kappa, V domains shown, Tested as hybridoma supernatant (ELISA) or Protein G-purified hybridoma antibody (SPR); constant region of the tested hybridoma material is uncertain (anti-mouse IgG secondary used)) VH: QVQLVQSGAEVKKPGASVKVSCKASGYTFTSYAMHWVRQAPGQRLEWMGWINTGNGNTKYSQKFQGRVTITRDTSASTAYMELSSLRSEDTAVYYCARGGSITGNIFYYYYYMDVWGKGTTVTVAS VL: not shown	0.253 nM	0.000269 s⁻¹	1.06e+06 M⁻¹ s⁻¹	2.55
anti-human BCMA monoclonal antibody 7E11 (antibody, human IgG1, kappa, V domains shown, Tested as hybridoma supernatant (ELISA) or Protein G-purified hybridoma antibody (SPR)) VH: EVQLVESGGGLVQPGGSLRLSCAASGFTFSYYDMHWVRQGTGKGLEWVSGIGTSGDTYYPDSVKGRFTISRENAKNSLNLQMNSLRDGDTAMYYCARGPYYYNSSGYYSYDALDIWGQGTMVTVTS VL: not shown	0.0504 nM	2.57e-05 s⁻¹	510000 M⁻¹ s⁻¹	2.3
anti-human BCMA monoclonal antibody 11G1 (antibody, V domains shown, Tested as hybridoma supernatant (ELISA) or Protein G-purified hybridoma antibody (SPR); constant region of the tested hybridoma material is uncertain (anti-mouse IgG secondary used)) VH: EVQLVESGGGLVQPGRSLRLSCEASGFTFDDYAMHWVRQPPGKGLEWVSGISWNSDNIGYADSVKGRFTISRDNAKNSLYLQMNSLRAEDTALYYCAKIQSGSSFDYWGQGTLVTVSS VL: DIQMTQSPSSLSASVGDRVTITCRASQSIINFLNWYQQKPGKAPKLLIYGASNLQSGVPSRFSGSGSGTDFTLTISSLQPEDFATYCCQQSSSIPLTFGGGTKVEIKR	0.0345 nM	1.63e-05 s⁻¹	472000 M⁻¹ s⁻¹	2.71

Further binders by falling Kd [1], results first:

Kd [1]	koff [1]	kon [1]	OD450 [2]	Binder
0.125 nM	6.02e-05 s⁻¹	480000 M⁻¹ s⁻¹	2.12	anti-human BCMA monoclonal antibody 15A7 (antibody, human IgG1, kappa, V domains shown, Tested as hybridoma supernatant (ELISA) or Protein G-purified hybridoma antibody (SPR); constant region of the tested hybridoma material is uncertain (anti-mouse IgG secondary used)) VH: EVQLVESGGGLVQPGGSLRLSCEASGFTFDDCAMHWVRQTPGKGLEWVSGISWNSDTMGYADSVKGRFIISRDNAKNSLYLQMNSLRVEDTALYHCTRVRAAVFDYWGQGVLVTVSS VL: DIHMTQSPSSLSASVGDRVTITCRASQSISSYLNWFQQKPGKAPTVLIYAASSLQSGVSSRFSGRGSGADFTLTISSLQPEDFASYFCQQSFSPLYIFGQGTKVEIKR
0.0885 nM	4.28e-05 s⁻¹	483000 M⁻¹ s⁻¹	2.49	anti-human BCMA monoclonal antibody 15H6 (antibody, human IgG1, kappa, V domains shown, Tested as hybridoma supernatant (ELISA) or Protein G-purified hybridoma antibody (SPR); constant region of the tested hybridoma material is uncertain (anti-mouse IgG secondary used)) VH: QVQLVQSGAEVKKPGASAKVSCKASGYTFTSYAMQWVRQAPGQRLEWMGWINAGNGNTKYSQKFQGRVTITRDTSASTAYMELSSLRSEDTAVYYCARGGRLELDIYYYFYYMDVWGKGTTVTVSS VL: DIVMSQSPDSLAVSLGERTTINCKSSQSVLHSSQNKNYLAWYQQKPGQPPNPLIHWASTRESGVPDRFSGSGSGTDFTLTISSLQAEDVAVYYCQQYYRVPFTFGPGTKVDIKR
0.0656 nM	5.29e-05 s⁻¹	807000 M⁻¹ s⁻¹		anti-human BCMA monoclonal antibody 20A2 (antibody, human IgG1, kappa, V domains shown, Tested as hybridoma supernatant (ELISA) or Protein G-purified hybridoma antibody (SPR); constant region of the tested hybridoma material is uncertain (anti-mouse IgG secondary used)) VH: QIQLVQSGAEVKKPGASVKVSCKASGYTFTAYYLHWVRQSPGHGLEWMGRIYPNSGDTNYAQKFQGRVTMTRDTSINTAYMELSRLRSDDTALYYCARGFNWNYEGGFDIWGQGTMVTVSS VL: DVVMTQSPLSLSVTLGQPASISCRSGQSLVYSDGNTYLNWFQQRPGQSPRRLIYKLSSRDSGVPDRFSGSGSGTDFTLKISRMEAEDVGVYYCMQRTHWPPTFGQGTKVEIKR
0.0477 nM	2.43e-05 s⁻¹	510000 M⁻¹ s⁻¹	2.4	anti-human BCMA monoclonal antibody 18D10 (antibody, human IgG1, kappa, V domains shown, Tested as hybridoma supernatant (ELISA) or Protein G-purified hybridoma antibody (SPR); constant region of the tested hybridoma material is uncertain (anti-mouse IgG secondary used)) VH: EVRLVESGGGLVQPGRSLRLSCAASGFTSNDYAMHWVRQAPGRGLEWVSGISWNSDSIGYADSVKGRFTISRDNAKNSLYLQMNSLRTEDTALYYCATVVSAYFDYWGQGTLVTVSS VL: DIQMTQSPSSLSASVGDRVTITCRTSQSISTYLNWYQQKPGKAPKLLIYAASSLKSGVPSRFSGSGSGTDFTLTISSLQPEDFATYFCQGSYIIPLTFGGGTRVEIKR
